Patent publication US20230357447A1 (JANUX THERAPEUTICS, published 2023)

Tests used:
[1] = biological target: T1, anti-CD28 scFv (VH-linker 1-VL) (biotinylated (site not stated)); test: phage ELISA; biotinylated scFv on neutravidin plate; anti-M13-HRP;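 note: crude clonal phage supernatant added to wells pre-incubated with soluble CD28 protein or only blocking buffer, then washed, bound phage read out with an HRP-linked anti-M13 antibody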
T1 construct: Captured as biotinylated scFv on neutravidin coated plates in the phage ELISA
T1 sequence (scFv, as listed by the source): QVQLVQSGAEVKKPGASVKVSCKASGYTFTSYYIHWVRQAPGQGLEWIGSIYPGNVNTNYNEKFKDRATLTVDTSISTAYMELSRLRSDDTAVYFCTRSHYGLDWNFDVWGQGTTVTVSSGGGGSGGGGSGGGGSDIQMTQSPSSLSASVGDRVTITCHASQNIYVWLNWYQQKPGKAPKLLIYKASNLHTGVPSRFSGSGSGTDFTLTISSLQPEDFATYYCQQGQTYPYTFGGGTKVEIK

[2] = biological target: T1, anti-CD28 scFv (VH-linker 1-VL); test: phage ELISA; scFv wells pre-incubated with soluble CD28 (competitor);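 note: crude clonal phage supernatants added to wells pretreated with soluble CD28 in blocking buffer, bound phage read via HRP-linked anti-M13 antibody, reference wells got blocking buffer only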
Protocol: (§1) Clonal phage were harvested as crude supernatants and screened via standard enzyme linked immunosorbent assays (ELISAs). […] Prior to the addition of clonal phage, wells were incubated with blocking buffer and CD28 soluble protein or blocking buffer alone. Without washing or aspirating, clonal phage supernatants were then added to the wells and incubated for a short time. Wells were then washed followed by detection of bound phage using a horse radish peroxidase conjugated anti-M13 antibody.

[3] = biological target: Anti-CD28 scFv (VH-linker 1-VL); test: phage ELISA: biotinylated anti-CD28 scFv on neutravidin plate, clonal phage supernatant, anti-M13-HRP; wells pre-incubated with soluble CD28 (competitor);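 for Phage binding ELISA CD28 scFv signal in presence of CD28: wells pretreated with soluble CD28 protein in blocking buffer before phage addition, no wash in between, reference wells got blocking buffer only, bound phage detected after washing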
Chain of Anti-CD28 scFv (VH-linker 1-VL) (scFv, as listed by the source): as above
Protocol: as §1

[4] = biological target: Anti-CD28 scFv (VH-linker 1-VL); test: phage ELISA: biotinylated anti-CD28 scFv on neutravidin plate, clonal phage supernatant, anti-M13-HRP;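 note: before phage addition, wells were preincubated either with soluble CD28 protein in blocking buffer or with blocking buffer only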
Protocol: as §1

| Binder | CD28 scFv signal [1] | CD28 scFv signal in presence of CD28 [2] | Phage binding ELISA CD28 scFv signal in presence of CD28 [3] | Phage binding ELISA CD28 scFv signal [4] |
| --- | --- | --- | --- | --- |
| MDWCPTYLWNECFN (on phage (pIII fusion)) [Phage-320 clonal phage peptide] | 2.24 | 0.606 |  |  |
| MDWCPRDLWYVCFA (on phage (pIII fusion)) [Phage-321 clonal phage peptide] | 2.22 | 0.138 |  |  |
| ITQCPSTMWNRCSV (Clonal phage from the Peptide-9 library) [Phage-424] |  |  | 0.108 | 0.098 |
| WVSCLRHHWLECFH (on phage (pIII fusion)) [Phage-274 clonal phage peptide] | 0.723 | 0.858 |  |  |
| MVGCATSMWNRCLT (on phage (pIII fusion)) [Phage-253 clonal phage peptide] | 0.77 | 0.746 |  |  |
| VILCPTTMWNRCFH (Clonal phage from the Peptide-9 library) [Phage-427] |  |  | 0.084 | 0.072 |
| MDWCPTYLWHVCFS (on phage (pIII fusion)) [Phage-315 clonal phage peptide] | 2.32 | 0.16 |  |  |
| MDWCPRDFWAFCFF (on phage (pIII fusion)) [Phage-270 clonal phage peptide] | 2.37 | 0.655 |  |  |
| MDWCPFDLWHVCYN (on phage (pIII fusion)) [Phage-256 clonal phage peptide] | 2.6 | 0.651 |  |  |
| MDWCPRNLWHACFN (on phage (pIII fusion)) [Phage-259 clonal phage peptide] | 1.57 | 0.112 |  |  |
| MDWCPTSFWNRCFH (on phage (pIII fusion)) [Phage-271 clonal phage peptide] | 0.087 | 0.092 |  |  |
| MDWCPRSHWSECFS (on phage (pIII fusion)) [Phage-277 clonal phage peptide] | 0.253 | 0.087 |  |  |
| MDWCPKFLWDECFA (on phage (pIII fusion)) [Phage-304 clonal phage peptide] | 2.41 | 0.376 |  |  |
| MDLCPTAMWNRCFY (Clonal phage from the Peptide-9 library) [Phage-425] |  |  | 0.084 | 0.097 |
| IDWCPIIQGLPCFA (Clonal phage from the Peptide-9 library) [Phage-432] |  |  | 0.065 | 0.368 |
| MDWCPRHMWHECFA (on phage (pIII fusion)) [Phage-263 clonal phage peptide] | 2.52 | 0.298 |  |  |
| MDWCPRHMWINCFA (on phage (pIII fusion)) [Phage-252 clonal phage peptide] | 0.92 | 0.165 |  |  |
| DSFCTWSAWQECGR (on phage (pIII fusion)) [Phage-269 clonal phage peptide] | 0.13 | 0.101 |  |  |
| MDWCPRYLWPVCFH (on phage (pIII fusion)) [Phage-307 clonal phage peptide] | 2.39 | 0.602 |  |  |
| IDWCPKIHWDLCYF (on phage (pIII fusion)) [Phage-276 clonal phage peptide] | 0.295 | 0.082 |  |  |
| MYWCATSMWNRCFV (on phage (pIII fusion)) [Phage-262 clonal phage peptide] | 0.398 | 0.415 |  |  |
| MDWCPRDLWYQCFN (on phage (pIII fusion)) [Phage-311 clonal phage peptide] | 2.35 | 0.609 |  |  |
| MDWCPMFLWHECFN (on phage (pIII fusion)) [Phage-309 clonal phage peptide] | 2.38 | 0.591 |  |  |
| MDWCPMFMWHECFN (on phage (pIII fusion)) [Phage-261 clonal phage peptide] | 2.23 | 1.04 |  |  |
| MDWCPRFLWHECFN (on phage (pIII fusion)) [Phage-257 clonal phage peptide] | 2.59 | 0.351 |  |  |
| MDWCPMFLWDECFN (on phage (pIII fusion)) [Phage-318 clonal phage peptide] | 2.29 | 0.203 |  |  |
| MAWCPADQWHECFN (Clonal phage from the Peptide-9 library) [Phage-431] |  |  | 0.456 | 1.84 |

| Binder | CD28 scFv signal [1] | CD28 scFv signal in presence of CD28 [2] | Phage binding ELISA CD28 scFv signal in presence of CD28 [3] | Phage binding ELISA CD28 scFv signal [4] |
| --- | --- | --- | --- | --- |
| VTSCPTTMWNRCFS (on phage (pIII fusion)) [Phage-266 clonal phage peptide] | 1.22 | 0.546 |  |  |
| MDWCPRSLWDYCFA (on phage (pIII fusion)) [Phage-294 clonal phage peptide] | 2.49 | 0.235 |  |  |
| MDWCPRYLWDYCFA (on phage (pIII fusion)) [Phage-280 clonal phage peptide] | 2.71 | 0.382 |  |  |
| MDWCPRSLWNYCFA (on phage (pIII fusion)) [Phage-316 clonal phage peptide] | 2.32 | 0.198 |  |  |
| MDWCPRSLWNYCFN (on phage (pIII fusion)) [Phage-313 clonal phage peptide] | 2.35 | 0.209 |  |  |
| MVWCMSVGWAVCLN (on phage (pIII fusion)) [Phage-272 clonal phage peptide] | 0.271 | 0.284 |  |  |
| MDWCPVFMWNECFN (on phage (pIII fusion)) [Phage-260 clonal phage peptide] | 2.66 | 0.356 |  |  |
| INLCPTPMWNRCWL (Clonal phage from the Peptide-9 library) [Phage-423] |  |  | 0.101 | 0.103 |
| MDWCPRSLWFLCFN (on phage (pIII fusion)) [Phage-281 clonal phage peptide] | 2.71 | 1.77 |  |  |
| MDWCPRDLWFACFA (on phage (pIII fusion)) [Phage-282 clonal phage peptide] | 2.66 | 0.794 |  |  |
| MTLCLSVDLVHCWY (on phage (pIII fusion)) [Phage-267 clonal phage peptide] | 0.632 | 0.093 |  |  |
| MSWCPRDLWHLCFF (on phage (pIII fusion)) [Phage-319 clonal phage peptide] | 2.27 | 0.319 |  |  |
| MDWCPRHLWHECFT (on phage (pIII fusion)) [Phage-317 clonal phage peptide] | 2.3 | 0.32 |  |  |
| MDWCPKSLWAECFN (on phage (pIII fusion)) [Phage-308 clonal phage peptide] | 2.38 | 0.162 |  |  |
| IHLCHWVPWIKCSH (Clonal phage from the Peptide-9 library) [Phage-430] |  |  | 2.51 |  |
| MDWCPRALWDHCFF (on phage (pIII fusion)) [Phage-292 clonal phage peptide] | 2.49 | 0.394 |  |  |
| MNWCPSTMWNRCLT (Clonal phage from the Peptide-9 library) [Phage-428] |  |  | 0.07 | 0.065 |
| MDWCPRDLWDECFN (on phage (pIII fusion)) [Phage-310 clonal phage peptide] | 2.37 | 0.248 |  |  |
| MERCPRYLWHMCYS (on phage (pIII fusion)) [Phage-286 clonal phage peptide] | 2.59 | 0.84 |  |  |
| MDWCPRYLWAECFN (on phage (pIII fusion)) [Phage-279 clonal phage peptide] | 2.74 | 1.14 |  |  |
| MDWCPIYLWAECFN (on phage (pIII fusion)) [Phage-299 clonal phage peptide] | 2.45 | 0.307 |  |  |
| MDWCPRDHWVDCYS (on phage (pIII fusion)) [Phage-275 clonal phage peptide] | 0.671 | 0.092 |  |  |
| MDWCPRDLWSVCFS (on phage (pIII fusion)) [Phage-290 clonal phage peptide] | 2.5 | 0.116 |  |  |
| MDWCPIALWDFCFA (on phage (pIII fusion)) [Phage-288 clonal phage peptide] | 2.52 | 0.492 |  |  |
| MDWCPRDLWAMCFA (on phage (pIII fusion)) [Phage-285 clonal phage peptide] | 2.63 | 0.889 |  |  |
| MFLCPSAMWNRCFY (Clonal phage from the Peptide-9 library) [Phage-426] |  |  | 0.114 | 0.094 |
